# Measured values as given in article PMC3534050, “Simultaneous Single-Sample Determination of NMNAT Isozyme Activities in Mouse Tissues” (PLoS ONE, 2012).
# Assays:
# [1] = substrate: NC(=O)c1ccc[n+]([C@@H]2O[C@H](COP(=O)(O)O)[C@@H](O)[C@H]2O)c1; assay: C18-HPLC of NAD formed, nonlinear fit; type: biochemical, Mus musculus; conditions: co-substrate ATP, NMN 5–100 µM, HEPES/KOH pH 7.5, MgCl2, 37°C
# From the text: (§1) C18-HPLC of NAD formed, nonlinear fit on mNMNAT3
# [2] = substrate: Nc1ncnc2c1ncn2[C@@H]1O[C@H](COP(=O)(O)OP(=O)(O)OP(=O)(O)O)[C@@H](O)[C@H]1O; assay: C18-HPLC of NAD formed, nonlinear fit; type: biochemical, Mus musculus; conditions: co-substrate NMN, ATP 25–175 µM, HEPES/KOH pH 7.5, MgCl2, 37°C
# From the text: as §1
# [3] = substrate: NC(=O)c1ccc[n+]([C@@H]2O[C@H](COP(=O)(O)O)[C@@H](O)[C@H]2O)c1; assay: C18-HPLC of NAD formed, nonlinear fit; type: biochemical, Mus musculus; conditions: co-substrate ATP, NMN 5–100 µM, HEPES/KOH pH 7.5, MgCl2, 37°C; remark: listed apart in the source
# From the text: (§2) C18-HPLC of NAD formed, nonlinear fit on mNMNAT1
# [4] = substrate: Nc1ncnc2c1ncn2[C@@H]1O[C@H](COP(=O)(O)OP(=O)(O)OP(=O)(O)O)[C@@H](O)[C@H]1O; assay: C18-HPLC of NAD formed, nonlinear fit; type: biochemical, Mus musculus; conditions: co-substrate NMN, ATP 25–175 µM, HEPES/KOH pH 7.5, MgCl2, 37°C; remark: listed apart in the source
# From the text: as §2
# [5] = substrate: Nc1ncnc2c1ncn2[C@@H]1O[C@H](COP(=O)(O)OP(=O)(O)OP(=O)(O)O)[C@@H](O)[C@H]1O; assay: purified protein; conditions: co-substrate NMN, ATP 25–175 µM, HEPES/KOH pH 7.5, MgCl2, 37°C
# [6] = substrate: NC(=O)c1ccc[n+]([C@@H]2O[C@H](COP(=O)(O)O)[C@@H](O)[C@H]2O)c1; assay: C18-HPLC of NAD formed, nonlinear fit; type: biochemical, Mus musculus; conditions: co-substrate ATP, NMN 5–100 µM, HEPES/KOH pH 7.5, MgCl2, 37°C; remark: listed apart in the source
protein,measurement,setting,value
"mNMNAT3 (Mus musculus) (protein, predicted mass 29866 Da) MKNRIPVVLLACGSFNPITNMHLRLFEVARDHLHQTGRYQVIEGIISPVNDSYGKKDLVASHHRVAMARLALQTSDWIRVDPWESEQAQWMETVKVLRHHHRELLRSSAQMDGPDPSKTPSASAALPELKLLCGADVLKTFQTPNLWKDTHIQEIVEKFGLVCVSRSGHDPERYISDSPILQQFQHNIHLAREPVLNEISATYVRKALGQGQSVKYLLPEAVITYIRDQGLYINDGSWKGKGKTG",Km,[1],117.6 ± 4.6 µM
same,kcat,[1],0.75 ± 0.02 s⁻¹
same,kcat/Km,[1],10000 M⁻¹ s⁻¹
same,Km,[2],39.0 ± 5.9 µM
same,kcat,[2],0.74 ± 0.04 s⁻¹
same,kcat/Km,[2],20000 M⁻¹ s⁻¹
"mNMNAT1 (Mus musculus) (protein, predicted mass 34518 Da) MDSSKKTEVVLLACGSFNPITNMHLRLFELAKDYMHATGKYSVIKGIISPVGDAYKKKGLIPAHHRIIMAELATKNSHWVEVDTWESLQKEWVETVKVLRYHQEKLATGSCSYPQSSPALEKPGRKRKWADQKQDSSPQKPQEPKPTGVPKVKLLCGADLLESFSVPNLWKMEDITQIVANFGLICITRAGSDAQKFIYESDVLWRHQSNIHLVNEWITNDISSTKIRRALRRGQSIRYLVPDLVQEYIEKHELYNTESEGRNAGVTLAPLQRNAAEAKHNHSTL",Km,[3],25.2 ± 5.6 µM
same,kcat,[3],15.5 ± 1.3 s⁻¹
same,kcat/Km,[3],610000 M⁻¹ s⁻¹
same,Km,[4],33.5 ± 5.1 µM
same,kcat,[4],15 ± 0.7 s⁻¹
same,kcat/Km,[4],450000 M⁻¹ s⁻¹
"mNMNAT2 (Mus musculus) (protein, predicted mass 36668 Da) MTETTKTHVILLACGSFNPITKGHIQMFERARDYLHKTGRFIVIGGIVSPVHDSYGKQGLVSSRHRLIMCQLAVQNSDWIRVDPWECYQDTWQTTCSVLEHHRDLMKRVTGCILSNVNTPSMTPVIGQPQHENTQPIYQNSNVPTKPTAAKILGKVGESLSRICCVRPPVERFTFVDENANLGTVMRYEEIELRILLLCGSDLLESFCIPGLWNEADMEVIVGDFGIVVVPRDAADTDRIMNHSSILRKYKNNIMVVKDDINHPMSVVSSTKSRLALQHGDGHVVDYLSQPVIDYILKSQLYINASG",Km,[5],82.0 ± 15.1 µM
same,kcat,[5],2.33 s⁻¹
same,kcat/Km,[5],30000 M⁻¹ s⁻¹
same,Km,[6],38.5 ± 13.5 µM
same,kcat,[6],2.87 ± 0.5 s⁻¹
same,kcat/Km,[6],70000 M⁻¹ s⁻¹
